According to US20130287795A1 (FUNDACION CENTRO NACIONAL DE INVESTIGACIONES ONCOLOGICAS, published 2013):
Values belong to the binder of their own block, whether it stands above or below them.

Tests used:
[1] = biological target: T1, ephrin B2-Fc (extracellular region of ephrin B2 fused to the Fc domain of human IgG, expressed in mammalian … (human)); assay: SPR (Biacore X), ephrin B2-Fc immobilised on CM5 chip, scFv at 30, 20, 10 and 7.5 uM, Langmuir 1:1 model
T1 construct: extracellular domain; Antigen used for panning, ELISA and Biacore; also called extracellular region of the ephrin B2
Protocol: (§1) The two selected scFv, B11 and 2B1, were characterized using various techniques. First we determined the antibodies affinity constants to the ephrin B2 by means of surface plasmon resonance technique on a Biacore X, with the extracellular region of the immobilized ephrin B2 and different dilutions of purified scFv. […] Then, it was analyzed, using the same technique, the capacity of the antibodies to compete for the binding of ephrin B2 to its natural receptor Eph B4. To this end, Eph B4-Fc was immobilized on a chip and the binding to ephrin B2 was measured in the presence of different concentrations of B11 or 2B1. […] However, the 2B1 antibody has no blocking effect (FIG. 5).
(§2) To study the affinity constants of the scFv was used the technique of surface plasmon resonance with the BIAcore X equipment (BIAcore). The ephrin B2-Fc was covalently bound to CM5 chip surface (GE Healthcare) upon activation of the carboxyl groups of the dextran matrix of the chip with 0.4 M EDC (1-ethyl-3-(-dimethylaminopropyl)-carbodiimide) and 0.1 M NHS(N-hydroxysuccinimide) in a 1:1 ratio for 7 minutes at a flow rate of 10 μl/minute. The ephrin B2-Fc protein was diluted to 10 μg/ml in 10 mM sodium acetate at pH 4 and 30 μl of this solution was passed over the chip surface at a flow rate of 10 μl/min in HBS-EP buffer (10 mM HEPES pH 7.4, 150 mM NaCl, 3 mM EDTA, 0.005% surfactant P20) (GE Healthcare). […]

[2] = biological target: T2, recombinant human ephrin B3-Fc (R & D) (human, UniProt Q15768 28-224); assay: immunoblot; periplasmic fraction of the scFv, detected with anti c-Myc and anti-mouse peroxidase conjugate
T2 construct: Bought protein (R & D); also called EB3; not shown: Fc part of the bought fusion protein is not described
T2 sequence (looked up): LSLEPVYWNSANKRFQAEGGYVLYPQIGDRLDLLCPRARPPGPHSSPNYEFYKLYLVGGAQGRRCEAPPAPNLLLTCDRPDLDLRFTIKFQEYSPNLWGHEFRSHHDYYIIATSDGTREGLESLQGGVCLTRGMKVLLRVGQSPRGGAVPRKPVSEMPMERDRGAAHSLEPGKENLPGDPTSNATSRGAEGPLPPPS
Protocol: (§3) Recombinant mouse proteins ephrin B1-Fc, mouse ephrin B2-Fc and human ephrin B3-Fc (R & D) were separated electrophoretically in polyacrylamide-SDS 10% gels and transferred onto nitrocellulose membrane (GE Healthcare). After blocking the membrane with PBS-3% skimmed milk powder for 1 hour, it was incubated with 1:5 diluted periplasmic fraction in PBS-3% powdered milk for 16 hours at 4° C. The secondary antibodies used were anti c-Myc (Sigma) at a 1:1000 dilution for 2 hours at room temperature and anti-mouse peroxidase conjugate (Sigma) diluted 1:5000 for 1 hour at room temperature. Visualization was performed by incubation with ECL reagent (ECL, “Enhanced Chemiluminescence”) (GE Healthcare).

[3] = biological target: T3, recombinant mouse ephrin B1-Fc (R & D) (mouse, UniProt P52795 30-229); assay: as above
T3 construct: Bought protein (R & D); also called EB1; not shown: Fc part of the bought fusion protein is not described
T3 sequence (looked up): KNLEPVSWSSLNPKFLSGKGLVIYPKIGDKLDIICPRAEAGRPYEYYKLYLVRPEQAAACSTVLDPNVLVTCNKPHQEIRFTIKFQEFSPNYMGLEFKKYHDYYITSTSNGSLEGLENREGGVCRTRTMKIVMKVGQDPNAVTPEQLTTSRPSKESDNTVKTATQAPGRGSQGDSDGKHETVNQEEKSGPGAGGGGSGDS
Protocol: as §3

[4] = biological target: T1, ephrin B2-Fc (extracellular region of …); assay: SPR competition: serial dilutions of scFv mixed with 0.2 uM ephrin B2-Fc, injected over immobilised Eph B4
Protocol: A. Graph showing the percent of binding of ephrin B2 to Eph B4. Binding inhibition tests of ephrin B2 to Eph B4 in the presence of scFv anti-ephrin B2 by surface plasmon resonance. Serial dilutions of scFv B11 (•) or 2B1 (∘) were mixed with ephrin B2 and injected over Eph B4 immobilized on a chip. The relative amount of ephrin B2 bound to Eph B4 was measured immediately after injection of each sample and plotted as a function of the concentration of scFv. […] B. The scFv B11 is capable of blocking the interaction between ephrin B2 and Eph B4 receptor in a cellular assay. Analysis of tyrosines phosphorylation of the Eph B4 receptor in HUVEC cells in response to stimulation with ephrin B2 overexpressed on the surface of HEK293 cells. HUVEC and HEK293 cells overexpressing ephrin B2 were cocultured for 20 minutes in the presence or absence of anti-ephrin B2 scFv. After Eph B4 receptor immunoprecipitation, it was analyzed the total amount of this protein (lower panel) and its level of phosphorylation (upper panel) by immunoblot.
The ability of scFv to inhibit the binding of ephrin B2 to its EphB4 receptor was analyzed by surface plasmon resonance competitive binding assay. Soluble Eph B4 (R&D) was conjugated to a CM5 chip (GE Healthcare) using the same protocol described above. […]

[5] = biological target: T1, ephrin B2-Fc (extracellular region of …); assay: SPR (Biacore X), ephrin B2-Fc immobilised on CM5 chip, scFv at 0.4, 0.2, 0.1, 0.05 uM, Langmuir 1:1 model
Protocol: as §1, §2

T1 sequence (P52799 whole entry, the tested form may be a part): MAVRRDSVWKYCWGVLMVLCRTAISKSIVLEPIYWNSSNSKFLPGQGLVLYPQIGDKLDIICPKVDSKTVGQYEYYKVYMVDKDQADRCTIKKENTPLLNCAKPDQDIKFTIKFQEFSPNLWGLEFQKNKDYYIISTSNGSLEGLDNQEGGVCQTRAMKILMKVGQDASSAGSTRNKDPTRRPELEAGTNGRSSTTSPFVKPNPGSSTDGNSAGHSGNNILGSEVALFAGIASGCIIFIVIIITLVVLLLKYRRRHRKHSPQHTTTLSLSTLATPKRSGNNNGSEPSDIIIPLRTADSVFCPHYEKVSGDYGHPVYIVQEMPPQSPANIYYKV

Kd [1]: 630 nM
binding result [2]: no binding
binding result [3]: no binding
B1: scFv 2B1 (human anti-ephrin B2 single chain variable fragment) (scFv)
scFv: QVQLVQSGGGLVQPGRSLRLSCAASGFTFDDYAMHWVRQAPGKGLEWVSGISWNSGSIGYADSVKGRFTISRDNAKNSLYLQMNSLRAEDTALYYCARGHRTSDAFDIWGQGTMVTVSSGGGGSGGGGSGGGGSQPVLTQPPSVSLAPGKTARITCGGDSIGLKSVHWYQQKPGQAPVLVMSSDSDRPSGIPDRFSGSNSGNTATLTITRVEAGDEADYYCQVWDSSSDHMVFGGGTKLTVLGQPKAAPSAAALEDYKDDDDKHHHHHH
notes: Expressed from pET28b in the E. coli periplasm with a histidine tail; also called clone 2B1; 2B1 antibody

IC50 [4]: 300 nM
Kd [5]: 110 nM
binding result [2]: no binding
binding result [3]: no binding
B2: scFv B11 (human anti-ephrin B2 single chain variable fragment) (scFv)
scFv: QVQLVQSGAEVKKPGASVRLSCEASGYTFTDYYIHWVRQAPGQGLEWMGWMNPSSGNTGYAQKFQGRVTMTRNTSISTAYMELSSLRSEDTAVYYCARDITGTATGFDYWGQGTLVTVSSGGGGSGGGGSGGGGSEIVLTQSPLSLPVTLGQPASISCRSSQSLLHSNGYNYLDWYLQKPGQSPQLLIYLGSNRASGVPDRFSGSGSGTDFTLKISRVEAEDVGVYYCMQGLLSPVTFGQGTRLDIKRTVAAPTAAAEQKLISEEDLNGAALEHHHHHH
notes: Expressed from pET28b in the E. coli periplasm with c-myc and a histidine tail; also called clone B11; B11 antibody
